Values belong to the molecule of their own block, whether it stands above or below them.
How the values were obtained:
[1] = target: bfIYD (Branchiostoma floridae, UniProt C3Y0Q6); experiment: FMN occupancy of purified enzyme from A450 and A280; type: binding; conditions: FMN bound as isolated
[2] = target: dpIYD (Daphnia pulex, UniProt E9FR69); experiment: as above; type: binding; conditions: FMN bound as isolated
[3] = target: T1, drIYD (Danio rerio, UniProt E7FDV5); experiment: as above; type: binding; conditions: FMN bound as isolated
T1 sequence (E7FDV5 24-295 limits assumed): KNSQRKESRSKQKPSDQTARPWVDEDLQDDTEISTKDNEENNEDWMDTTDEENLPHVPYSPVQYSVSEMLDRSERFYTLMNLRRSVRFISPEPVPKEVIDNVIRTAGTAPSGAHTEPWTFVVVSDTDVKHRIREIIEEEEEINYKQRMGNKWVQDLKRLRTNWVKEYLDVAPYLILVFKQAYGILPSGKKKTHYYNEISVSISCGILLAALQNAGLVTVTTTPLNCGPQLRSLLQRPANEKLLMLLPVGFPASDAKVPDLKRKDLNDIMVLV

[4] = target: amIYD (Apis mellifera, UniProt A0A7M7RAX7); experiment: as above; type: binding; conditions: FMN bound as isolated
[5] = target: nvIYD (Nematostella vectensis, UniProt A7S5D9); experiment: as above; type: binding; conditions: FMN bound as isolated
[6] = target: hmIYD (Hydra vulgaris, UniProt T2MBC4); experiment: as above; type: binding; conditions: FMN bound as isolated; partly purified enzyme
[7] = target: hhIYD (Haliscomenobacter hydrossis, UniProt F4KU78); experiment: as above; type: binding; conditions: FMN bound as isolated
[8] = substrate: N[C@@H](Cc1cc(I)c(O)c(I)c1)C(=O)O; experiment: purified protein; type: biochemical, Danio rerio; conditions: labelled compound; excess FMN present in assay
[9] = substrate: N[C@@H](Cc1cc(I)c(O)c(I)c1)C(=O)O; experiment: purified protein; type: biochemical, Nematostella vectensis; conditions: labelled compound; excess FMN present in assay
[10] = substrate: N[C@@H](Cc1cc(I)c(O)c(I)c1)C(=O)O; experiment: purified protein; type: biochemical, Daphnia pulex; conditions: labelled compound; excess FMN present in assay
[11] = substrate: N[C@@H](Cc1cc(I)c(O)c(I)c1)C(=O)O; experiment: purified protein; type: biochemical, Haliscomenobacter hydrossis; conditions: labelled compound; excess FMN present in assay

hmIYD, sequence (T2MBC4 43-272): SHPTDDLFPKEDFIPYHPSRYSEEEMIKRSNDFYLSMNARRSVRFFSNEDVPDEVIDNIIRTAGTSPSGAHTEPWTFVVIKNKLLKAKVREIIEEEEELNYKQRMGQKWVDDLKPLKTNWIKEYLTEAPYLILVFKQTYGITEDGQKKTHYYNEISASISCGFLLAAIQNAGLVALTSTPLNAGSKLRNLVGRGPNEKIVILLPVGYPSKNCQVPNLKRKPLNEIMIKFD

FMN occupancy [1]: 95%
FMN occupancy [2]: 95%
FMN occupancy [3]: 95%
FMN occupancy [4]: 95%
FMN occupancy [5]: 55%
FMN occupancy [6]: 59%
FMN occupancy [7]: 95%
Molecule: Cc1cc2nc3c(=O)[nH]c(=O)nc-3n(C[C@H](O)[C@H](O)[C@H](O)COP(=O)(O)O)c2cc1C [FMN]

B1: drIYD (Danio rerio) (protein)
chain: T1 sequence (E7FDV5 24-295 limits assumed)
Km [8]: 8 ± 1 µM
kcat [8]: 0.0683 ± 0.00333 s⁻¹
kcat/Km [8]: 8500 ± 1170 M⁻¹ s⁻¹

B2: nvIYD (Nematostella vectensis) (protein)
chain: MEVFKALFKSKEAYTVDVDPMKDSDEHDLPRDPLSIRVTGEEEVNHIPYPYFDEIPTEEEMKKKSAEFYKSMKKRRTVRKISSEPVPLEVIENIVRVAGTSPSGAHTEPWTYVVIRDPDLKKQIKEVVEEEEQLNYARRMGEKWVQDLSILKTTWSKPYIETAPYLILIFKQVYGIKPDGDKKVHYYNEISVCISCGLLLAAIQNAGLVTVTSTPMNAGPRLRVLLNRPQNEKLIMLLPVGYPAKDAEVPNLTRKPLEEIMVLK
Km [9]: 105 ± 26 µM
kcat [9]: 0.533 ± 0.0667 s⁻¹
kcat/Km [9]: 5000 ± 1330 M⁻¹ s⁻¹

B3: dpIYD (Daphnia pulex) (protein)
chain: VKRESAIEQINEIEDDDEQSLEDQDVLPILFQYEKPSEADSIRRSEEFYRRMNQRRSVREISSDPVALEVIENIIKTGGTSPSGAHTEPWTFVVVSNLEMKQQIRQIIEAEEEINYKQRMGDVWVQDLQPVGTTWVKEYLTEAPWLILIFKQVHGFKRNGQKKIHYYNEISVSIATGFLLAAIQEAGLVTVTTTPLNCGPSIRVLLGRPVNEKLLLLLPVGYPKVGATVPDFKRKPLHDIMVHYQ
Km [10]: 7 ± 1 µM
kcat [10]: 0.293 ± 0.0133 s⁻¹
kcat/Km [10]: 41700 ± 6670 M⁻¹ s⁻¹

B4: hhIYD (Haliscomenobacter hydrossis DSM 1100) (protein)
chain: MKQKPAFIPYAGAQFEPEEMLSKSAEYYQFMDHRRTVREFSNRAIPLEVIENIVMTASTAPSGAHKQPWTFVVVSDPQIKAKIRQAAEKEEFESYNGRMSNEWLEDLQPFGTDWHKPFLEIAPYLIVVFRKAYDVLPDGTQRKNYYVQESVGIACGFLLAAIHQAGLVALTHTPSPMNFLQKILQRPENERPFLLVPVGYPAEGAMVPDLQRKDKAAVMVVY
Km [11]: 6.6 ± 0.9 µM
kcat [11]: 0.09 ± 0.005 s⁻¹
kcat/Km [11]: 13300 ± 1670 M⁻¹ s⁻¹

— PMC3858845 (Molecular bioSystems, 2014)
